Laboratory results as given in US20180022781A1 (INSERM INSTITUT NATIONAL DE LA SANTE ET DE LA RECHERCHE …, published 2018).
Where a chain is given by its changes, count along the chain named.

T1: full-length Ty1 IN (IN1-635) fused to Gal4 activating domain (Saccharomyces cerevisiae, UniProt P0C2I7 583-1217)
T1 construct: the residue numbers of the constructs agree with it
T1 sequence: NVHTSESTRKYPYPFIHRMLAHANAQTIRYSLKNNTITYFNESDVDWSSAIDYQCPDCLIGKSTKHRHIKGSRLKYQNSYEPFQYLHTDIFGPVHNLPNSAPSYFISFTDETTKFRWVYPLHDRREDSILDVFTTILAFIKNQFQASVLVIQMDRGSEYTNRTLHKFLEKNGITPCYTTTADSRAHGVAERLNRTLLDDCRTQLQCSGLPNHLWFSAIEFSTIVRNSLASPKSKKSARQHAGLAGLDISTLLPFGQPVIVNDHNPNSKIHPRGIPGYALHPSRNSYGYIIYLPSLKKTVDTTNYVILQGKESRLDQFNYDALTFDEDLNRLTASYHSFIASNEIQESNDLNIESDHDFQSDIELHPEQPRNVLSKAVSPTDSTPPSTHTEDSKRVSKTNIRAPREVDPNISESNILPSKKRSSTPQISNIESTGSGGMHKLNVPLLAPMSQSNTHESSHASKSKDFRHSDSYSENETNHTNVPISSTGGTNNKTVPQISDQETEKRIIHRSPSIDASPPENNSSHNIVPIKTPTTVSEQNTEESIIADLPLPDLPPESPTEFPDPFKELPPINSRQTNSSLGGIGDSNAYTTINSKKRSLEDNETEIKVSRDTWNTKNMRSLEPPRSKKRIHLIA

B1: Ty1 integrase with S621 modified in A, expressed from a mutant Ty1 element (protein)
chain: T1 sequence with S621A
B2: Ty1 integrase with K617 modified in A, expressed from a mutant Ty1 element (protein)
chain: T1 sequence with K617A
B3: Ty1 integrase with M619 modified in A, expressed from a mutant Ty1 element (protein)
chain: T1 sequence with M619A
B4: Ty1 integrase with L622 modified in A, expressed from a mutant Ty1 element (protein)
chain: T1 sequence with L622A
B5: Ty1 integrase with R619 [read as R620] modified in A, expressed from a mutant Ty1his3AI element (protein)
chain: T1 sequence with R620A
B6: Ty1 integrase (IN) expressed from a functional Ty1 element (protein)
chain: T1 sequence
B7: S. pombe AC40 (AC40sp) fused to Gal4 binding domain (GBD-AC40sp) (other, UniProt P04386 1-147, looked up)
chain: MKLLSSIEQACDICRLKKLKCSKEKPKCAKCLKNNWECRYSPKTKRSPLTRAHLTEVESRLERLEQLFLLIFPREDLDMILKMDSLQDIKALLTGLFVQDNVNKDAVTDRLASVETDMPLTLRQHRISATSSSEESSNKGQRQLTVSMAAVDRSRTEISVLSDRVTDVGSVDFPGYYFDEDNIWDLDKFKKNLKVSITSLDQETMVFEISGIDASIANAFRRILIAEIPTLAFEFVYIINNTSIIQDEVLSHRIGLVPISADPDMFKWFQHPLPGQEATHTDYDTVVFSLNKKCEFNKNAATDEKDPKRLYVNSEVYSGDLIWKPQGRQEERFADNPIRVVNPDIVVAKLRPGQEIDLEAHAILGIGQDHAKFSPVATASYRLLPTIHILSPIEGEDAVKFQKCFPKGVIELEEGPDGKKQARVADVRKDTVSRECLRHPEFADKVQLGRVRDHYLFSVESTGIMKPDVLFIKSIAVLKSKCLAVKSSLQNISSD

Assays:
[1] = biological target: S. pombe AC40 (AC40sp) (Schizosaccharomyces pombe) (UniProt O94616); experiment: cell-based or functional assay
[2] = biological target: AC40 subunit of RNA polymerase III, P07703
[3] = biological target: S. pombe AC40 (AC40sp), O94616
[4] = biological target: T1, full-length Ty1 IN (IN1-635) fused to …; experiment: yeast two-hybrid
Description: (A) Two-hybrid interaction between different domains of Ty1-IN and AC40 or AC40sp. Left, Ty1 structure. Two open reading frames, GAG and POL (historically TYA and TYB), are flanked by two LTRs (black triangles). Protease (PR), integrase (IN), reverse transcriptase-RNAse H (RT/RH). The left-right arrow indicates Ty1 sequences recovered in the two-hybrid screen (2-HS) with AC40 as bait (coordinates 2706-4342 in Ty1). Ty1-IN regions fused to Gal4 activating domain (GAD) are depicted. Right, serial 10-fold dilutions of liquid cultures of cells expressing AC40 or AC40sp fused to Gal4 binding domain (GBD) and the various GAD-IN proteins were plated onto non-selective (Control) or selective (Interaction) media to detect interactions. (B) Co-immunoprecipitation of AC40 and IN-Strep. A 6×HA epitope was inserted at the end of the endogenous RPC40 gene (AC40-HA) and IN was fused with streptavidine (IN-Strep) and expressed from a galactose inducible promoter. Immunoprecipitation of protein extracts was performed with anti-HA magnetic beads coupled to IgG. […] (C) Co-immunoprecipitation of AC40 and IN expressed from a galactose inducible functional Ty1 element. Immunoprecipitation conditions are as in FIG. 3B.

AC40 subunit of RNA polymerase III, P07703, sequence (P07703 whole entry, looked up, tested part not stated): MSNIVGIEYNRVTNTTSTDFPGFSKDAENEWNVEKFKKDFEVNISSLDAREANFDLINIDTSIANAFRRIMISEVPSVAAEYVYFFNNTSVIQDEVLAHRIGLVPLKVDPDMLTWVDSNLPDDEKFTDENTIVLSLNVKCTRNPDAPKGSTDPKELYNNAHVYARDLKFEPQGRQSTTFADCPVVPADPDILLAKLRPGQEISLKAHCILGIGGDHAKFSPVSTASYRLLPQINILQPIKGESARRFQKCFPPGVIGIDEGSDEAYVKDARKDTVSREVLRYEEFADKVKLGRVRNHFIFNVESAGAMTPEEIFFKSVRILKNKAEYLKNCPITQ

Molecule | PCR detection of Ty1 insertion events upstream of tG(GCC)C [2] | relative frequency of Ty1his3AI retrotransposition [2] | further results
Ty1 integrase (IN) expressed from a functional Ty1 element (from UniProt P0C2I7 583-1217) (enzyme) | – | – | fraction of 5FOA^R cells arising from Ty1 integration [1]: 30 fold lower
B1 | Ty1 integration upstream of a Pol III genes is severely affected in Ty1 mutants carrying mutations that abolish IN/AC40 interaction | Ty1 overall mobility decreases no more than two-fold in Ty1 mutants carrying mutations that abolish IN/AC40 interaction | –
B2 | The loss of this pattern was also obtained in mutants of Ty1 in which either of the K617 or M619 residues where modified in A (alanine) | Ty1 overall mobility decreases no more than two-fold in Ty1 mutants carrying mutations that abolish IN/AC40 interaction | –
B3 | The loss of this pattern was also obtained in mutants of Ty1 in which either of the K617 or M619 residues where modified in A (alanine) | Ty1 overall mobility decreases no more than two-fold in Ty1 mutants carrying mutations that abolish IN/AC40 interaction | –
B4 | Ty1 integration upstream of a Pol III genes is severely affected in Ty1 mutants carrying mutations that abolish IN/AC40 interaction | Ty1 overall mobility decreases no more than two-fold in Ty1 mutants carrying mutations that abolish IN/AC40 interaction | –
B5 | – | Ty1 overall mobility decreases no more than two-fold in Ty1 mutants carrying mutations that abolish IN/AC40 interaction | –
B6 | – | – | PCR pattern of Ty1 insertions upstream of tG(GCC)C [3]: In cultures expressing AC40sp, the pattern was dramatically altered, showing both a significant decrease in Ty1 integration and an apparent relaxed periodicity between hotspots; frequency of IN-dependent Ty1HIS3 integration in a rad52Δ mutant [3]: the frequency of IN-dependent integration is 2-fold lower in AC40sp cells compared to AC40 cells; genome-wide Ty1 integration profile [3]: the loss-of-interaction mutant displayed a fundamentally different profile with only a slight bias to integrate near tRNA genes
B7 | – | – | binding result [4]: no binding
